Source: US20240352144A1 (UNIVERSIT TSKLINIKUM HAMBURG EPPENDORF, published 2024)

Columns and labels:
[1] = biological target: recombinant human CD39 ectodomain with C-terminal His6x tag (human) (UniProt P49961); assay: BLI (Octet RED96), rabbit IgG hcAb on protein A biosensor, recombinant CD39 ectodomain as analyte
human CD39 (gene ID 953) = biological target: T1, human CD39 (gene ID 953) (human, UniProt P49961 5-510); assay: flow cytometry, rabbit IgG hcAb supernatant on transfected HEK cells
T1 construct: Cell-surface form: transiently or stably transfected HEK cells, PBMCs, AML cell lines; also called native CD39; human CD39 transfected HEK cells
T1 sequence: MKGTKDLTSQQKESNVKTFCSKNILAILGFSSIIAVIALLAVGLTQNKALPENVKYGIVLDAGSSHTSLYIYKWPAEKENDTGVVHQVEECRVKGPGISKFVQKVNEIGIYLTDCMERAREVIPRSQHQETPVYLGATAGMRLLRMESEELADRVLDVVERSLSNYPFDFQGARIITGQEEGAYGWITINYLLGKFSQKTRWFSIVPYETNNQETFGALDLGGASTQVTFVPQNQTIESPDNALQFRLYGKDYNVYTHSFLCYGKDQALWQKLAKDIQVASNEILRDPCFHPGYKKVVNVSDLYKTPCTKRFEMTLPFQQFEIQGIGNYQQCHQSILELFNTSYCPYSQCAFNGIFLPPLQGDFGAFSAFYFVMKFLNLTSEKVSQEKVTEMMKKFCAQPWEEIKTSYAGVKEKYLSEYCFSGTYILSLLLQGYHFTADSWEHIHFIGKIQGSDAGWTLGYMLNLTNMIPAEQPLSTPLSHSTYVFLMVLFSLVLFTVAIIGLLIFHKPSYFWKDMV

[2] = biological target: recombinant human CD39 ectodomain with C-terminal His6x tag (human) (UniProt P49961); assay: BLI (Octet RED96), rabbit IgG hcAb on protein A biosensor, recombinant CD39 ectodomain as analyte at 200 ng/µl

koff [1]: 0.0003 s⁻¹ | binding result (human CD39 (gene ID 953)): binds | koff [2]: 0.00039 s⁻¹
B1: SB28 rabbit IgG hcAb (Fc fusion, not shown: a dimerising Fc or GST)
VHH: QVQLVESGGGLVQPGGSLRLSCAASGSIFNFNAMGWYRQAPGKQRELVAAITSGGSTNYADSVKGRFTISRDNAKNTVYLQMNSLKPEDTAVYYCHGIGGSTWFGEEEYDYWGQGTQVTVSS
notes: also called family 1
